From PMC8913847

Target: T1, IRF-3, endogenous in SeV-infected 293T cells (phosphorylated) (human (endogenous in 293T)), Q14653
T1 chain: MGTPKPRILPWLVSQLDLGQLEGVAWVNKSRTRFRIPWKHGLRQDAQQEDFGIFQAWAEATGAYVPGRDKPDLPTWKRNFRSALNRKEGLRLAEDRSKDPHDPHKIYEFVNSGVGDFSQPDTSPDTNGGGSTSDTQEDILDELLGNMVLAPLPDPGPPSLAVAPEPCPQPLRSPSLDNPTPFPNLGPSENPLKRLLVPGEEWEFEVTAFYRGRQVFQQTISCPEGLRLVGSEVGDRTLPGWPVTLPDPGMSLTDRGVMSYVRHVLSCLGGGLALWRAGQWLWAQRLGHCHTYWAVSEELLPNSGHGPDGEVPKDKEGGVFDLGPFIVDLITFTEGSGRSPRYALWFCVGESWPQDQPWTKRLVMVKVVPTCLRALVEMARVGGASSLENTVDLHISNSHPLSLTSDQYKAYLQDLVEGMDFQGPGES
Test: native gel or EMSA; native PAGE (7.5% gel, 0.2% sodium deoxycholate in the upper chamber buffer) of total lysates of 293T and 293T DDX3KO cells infected with SeV for the indicated times; immunoblot for IRF-3
Details: remark: other sources report otherwise

B1: IRF-3, endogenous in SeV-infected 293T cells (phosphorylated), Q14653 1-427 (natural protein)
chain: T1 chain
modifications: here or on the partner: phosphorylation detected with phospho-specific antibody (S396); mobility retardation suggesting phosphorylation at multiple sites; phosphorylation detected with phospho-specific antibody (S396); mobility retardation suggesting phosphorylation at multiple sites
With B1 the stoichiometry N was 2.
